Test results published in patent WO2013011062A2 (dated 2013).

T1: Human OSCAR (osteoclast-associated receptor), full length, on cells (human)
T1 construct: also called hOSCAR; HEK-OSCAR cells
T1 chain: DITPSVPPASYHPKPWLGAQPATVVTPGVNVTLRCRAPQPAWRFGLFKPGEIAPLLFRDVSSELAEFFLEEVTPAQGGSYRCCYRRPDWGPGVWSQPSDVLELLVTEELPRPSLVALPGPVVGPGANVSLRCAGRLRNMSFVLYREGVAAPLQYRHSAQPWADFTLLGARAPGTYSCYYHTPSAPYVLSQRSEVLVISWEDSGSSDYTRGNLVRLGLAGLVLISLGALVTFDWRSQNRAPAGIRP

B1: recombinant extracellular domain of human OSCAR (OSCAR-ECD) (receptor)
chain: DITPSVPPASYHPKPWLGAQPATVVTPGVNVTLRCRAPQPAWRFGLFKPGEIAPLLFRDVSSELAEFFLEEVTPAQGGSYRCCYRRPDWGPGVWSQPSDVLELLVTEELPRPSLVALPGPVVGPGANVSLRCAGRLRNMSFVLYREGVAAPLQYRHSAQPWADFTLLGARAPGTYSCYYHTPSAPYVLSQRSEVLVISWEDSGSSDYTR
notes: The printed entry starts with the putative signal peptide; also called Human OSCAR-ECD; OSACAR-ECD
B2: anti-OSCAR mAb 13F5A5 (antibody, V domains shown)
VH: EVQLVQSGAEVKKPGESLKISCKGSGYSFTSYWIVWVRQMPGKGLEWMGSIYPGDSDARYSPSFQGQVTISADKSISTAYLQWSSLKASDTAMYYCARQKITMVRGVIITPLDGMDVWGQGTTVTVSS
VL: not shown
notes: Fully human mAb (HuMab mice)
B3: anti-OSCAR mAb 16F56A2 (antibody, V domains shown)
VH: QVQLVQSGAEVKKPGSSVKVSCKASGGTFSNYAISWVRQAPGQGLEWMGRIIPILGIAHNAQKFQDRVTITADKSTSTAYMELSSLRSEDTAVYYCASPSSGKGLPYWFFDLWGRGTLVTVSS
VL: DIQMTQSPSFLSASVGDRVTITCRASQSISSYLNWYQQKPGKAPKLLIYAASSLQSGVPSRFSGSGSGTDFTLTISSLQPEDFATYYCQCGYSTPLTFGGGTKVEIKR
notes: Human mAb

Tests used:
Human collagen I = molecular target: T2, Human collagen I (human, UniProt P02452 162-1218; P08123 80-1119); assay: SPR
T2 construct: Bought (Sigma C5483); also called ColI; collagen 1

[1] = molecular target: T1, Human OSCAR (osteoclast-associated …); assay: flow cytometry on human monocytes (CD14+ PBMC), Alexa Fluor 647-labelled mAb at 0.5 ug/ml

T2 sequence (P02452 162-1218, chain 1 of 2): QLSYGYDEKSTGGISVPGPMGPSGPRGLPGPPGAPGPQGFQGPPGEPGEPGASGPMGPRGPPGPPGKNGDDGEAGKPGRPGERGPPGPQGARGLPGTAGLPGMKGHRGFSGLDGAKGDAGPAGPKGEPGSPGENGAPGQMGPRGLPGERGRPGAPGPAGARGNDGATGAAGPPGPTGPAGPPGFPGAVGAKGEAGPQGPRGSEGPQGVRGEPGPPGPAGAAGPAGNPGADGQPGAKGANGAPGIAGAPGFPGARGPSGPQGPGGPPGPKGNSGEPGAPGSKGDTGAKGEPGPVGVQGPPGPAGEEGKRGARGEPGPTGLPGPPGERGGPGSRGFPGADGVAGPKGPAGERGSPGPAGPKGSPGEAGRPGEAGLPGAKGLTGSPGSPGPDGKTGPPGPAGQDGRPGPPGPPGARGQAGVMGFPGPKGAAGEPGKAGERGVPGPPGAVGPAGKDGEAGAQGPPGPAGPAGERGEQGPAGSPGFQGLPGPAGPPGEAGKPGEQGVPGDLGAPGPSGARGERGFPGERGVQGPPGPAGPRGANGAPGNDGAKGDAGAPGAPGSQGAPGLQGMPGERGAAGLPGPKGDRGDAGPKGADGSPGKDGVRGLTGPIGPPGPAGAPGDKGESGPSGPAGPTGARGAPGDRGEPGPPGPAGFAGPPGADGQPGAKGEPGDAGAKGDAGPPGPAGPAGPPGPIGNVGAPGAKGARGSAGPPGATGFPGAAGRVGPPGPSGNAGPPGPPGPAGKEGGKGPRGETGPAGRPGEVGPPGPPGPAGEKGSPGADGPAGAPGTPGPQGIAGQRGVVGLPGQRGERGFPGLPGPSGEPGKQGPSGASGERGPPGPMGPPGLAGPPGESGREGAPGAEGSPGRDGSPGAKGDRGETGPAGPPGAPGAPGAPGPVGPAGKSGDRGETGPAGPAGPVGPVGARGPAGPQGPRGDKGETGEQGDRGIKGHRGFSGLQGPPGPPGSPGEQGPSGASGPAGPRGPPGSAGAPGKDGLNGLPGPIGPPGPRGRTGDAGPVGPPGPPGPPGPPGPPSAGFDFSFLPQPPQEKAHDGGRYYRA
T2 sequence (P08123 80-1119, chain 2 of 2): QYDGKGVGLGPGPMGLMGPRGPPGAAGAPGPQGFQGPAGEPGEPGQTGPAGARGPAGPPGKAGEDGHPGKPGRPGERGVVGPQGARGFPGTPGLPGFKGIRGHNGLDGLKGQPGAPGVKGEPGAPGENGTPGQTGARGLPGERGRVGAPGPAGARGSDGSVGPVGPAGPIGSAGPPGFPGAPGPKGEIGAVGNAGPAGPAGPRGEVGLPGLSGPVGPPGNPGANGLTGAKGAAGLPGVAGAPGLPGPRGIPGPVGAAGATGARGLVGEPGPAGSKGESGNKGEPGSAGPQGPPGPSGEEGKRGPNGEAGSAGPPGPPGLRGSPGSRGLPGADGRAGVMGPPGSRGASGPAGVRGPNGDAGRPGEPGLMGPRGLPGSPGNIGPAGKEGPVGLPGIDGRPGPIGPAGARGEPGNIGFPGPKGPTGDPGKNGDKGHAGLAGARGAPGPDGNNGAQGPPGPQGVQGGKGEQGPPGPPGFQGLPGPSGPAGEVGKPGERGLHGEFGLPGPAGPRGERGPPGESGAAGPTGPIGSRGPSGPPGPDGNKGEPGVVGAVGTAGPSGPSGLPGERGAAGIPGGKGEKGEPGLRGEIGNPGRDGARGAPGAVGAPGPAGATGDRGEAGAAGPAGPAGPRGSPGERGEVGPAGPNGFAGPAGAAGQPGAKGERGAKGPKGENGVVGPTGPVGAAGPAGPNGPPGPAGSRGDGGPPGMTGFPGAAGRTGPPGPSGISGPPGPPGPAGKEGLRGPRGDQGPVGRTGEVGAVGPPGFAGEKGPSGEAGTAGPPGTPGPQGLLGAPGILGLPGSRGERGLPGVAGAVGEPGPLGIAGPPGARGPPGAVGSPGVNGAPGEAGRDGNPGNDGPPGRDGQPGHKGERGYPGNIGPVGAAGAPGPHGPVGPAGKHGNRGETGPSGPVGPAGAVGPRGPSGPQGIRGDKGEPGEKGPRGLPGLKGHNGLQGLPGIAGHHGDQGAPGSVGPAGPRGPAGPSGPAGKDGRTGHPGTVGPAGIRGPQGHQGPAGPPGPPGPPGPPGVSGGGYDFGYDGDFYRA

| Binder | Kd (Human collagen I) [nM] | binding result [1] |
| --- | --- | --- |
| B1 | 255 | – |
| B2 | – | binds |
| B3 | – | binds |
